No end group written: not given here. *: point of attachment. FITC = O=C1OC2(c3ccc(O)cc3Oc3cc(O)ccc32)c2ccc(NC(=S)*)cc21; Ahx = NCCCCCC(=O)O

In test [1] the target is syntaxin1 (stx1) and SNAP25 (S25) (Rattus norvegicus, UniProt P32851+P60881).
A further test has as its system SNARE assemblies. It is filed as binding.

Chain of S3S23 (O00161 whole entry): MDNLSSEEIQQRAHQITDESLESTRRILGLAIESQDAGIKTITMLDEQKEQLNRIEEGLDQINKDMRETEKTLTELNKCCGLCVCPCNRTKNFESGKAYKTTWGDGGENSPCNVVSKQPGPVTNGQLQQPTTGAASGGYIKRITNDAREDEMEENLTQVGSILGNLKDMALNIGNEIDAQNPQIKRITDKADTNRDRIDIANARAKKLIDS
Chain of S1S23 (O00161 whole entry): as above
Chain of syntaxin1 (stx1) and SNAP25 (S25) (P60881 whole entry): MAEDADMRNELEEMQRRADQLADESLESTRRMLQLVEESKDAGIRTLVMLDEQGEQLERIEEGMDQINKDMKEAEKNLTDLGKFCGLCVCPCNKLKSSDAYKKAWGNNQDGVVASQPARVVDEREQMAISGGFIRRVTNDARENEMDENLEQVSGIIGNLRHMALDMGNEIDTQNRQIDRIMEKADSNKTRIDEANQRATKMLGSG
Chain of syntaxin1 (stx1) and SNAP25 (S25) (P32851 whole entry): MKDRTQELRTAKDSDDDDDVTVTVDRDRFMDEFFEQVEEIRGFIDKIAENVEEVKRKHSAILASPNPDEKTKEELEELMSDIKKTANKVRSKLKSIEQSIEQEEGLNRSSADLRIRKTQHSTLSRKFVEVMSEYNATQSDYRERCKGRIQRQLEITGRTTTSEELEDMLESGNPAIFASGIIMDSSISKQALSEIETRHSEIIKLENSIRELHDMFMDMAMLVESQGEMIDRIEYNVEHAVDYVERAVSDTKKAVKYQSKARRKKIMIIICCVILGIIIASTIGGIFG

On to synaptobrevin (VAMP2), for which the Tm was determined as 59 °C with S3S25, 71 °C with S1S25, 65 °C in the test with S1S23 and 61 °C with S3S23.

Turning to “{FITC-Ahx}-DIMRVNVDKVLERDQKLSELDDRADALQAGASQFETSAAKLA”, the “formation of SDS-resistant complex” value in test [1] was “still forms an SDS-resistant complex”.

Consider “Ac-ERKAKYAKMEAEREVMRQGIRDKYGIKKGSGSGGIKVAV-NH2 [29 amino acid complexin 1 peptide]”, for which, in the test on SNARE assemblies, the “interaction with SNARE assemblies” value is on record as “can interact with SNARE assemblies”.

As for “{FITC-Ahx}-DKVLERDQKLSELDDRADALQAGASQFETSAAKLA [35 amino acid synaptobrevin SNARE motif]”, the “formation of SDS-resistant complex” value in test [1] was “forms a complex but it ‘melts’ during gel-electrophoresis”.

B1: VAMP7 (protein)
VAMP7: AILFAVVARGTTILAKHAWCGGNFLEVTEQILAKIPSENNKLTYSHGNYLFHYICQDRIVYLCITDDDFERSRAFSFLNEVKKRFQTTYGSRAQTALPYAMNSEFSSVLAAQLKHHSENKSLDKVMETQAQVDELKGIMVRNIDLVAQRGERLELLIDKTENLVDSSVTFKTTSRNLARAMCMKNIK
As for B1, the Tm in the test with S3S25 is 45 °C; with S1S25, 56 °C; with S1S23 it was 57 °C; with S3S23 it was 50 °C.

B2: VAMP8 (protein)
VAMP8: EEASGSAGNDRVRNLQSEVEGVKNIMTQNVERILSRGENLDHLRNKTEDLEATSEHFKTTSQKVARKFWWKNVK
B2: the Tm with S3S25 is 48 °C; with S1S25, 57 °C; with S1S23, 57 °C; with S3S23, 56 °C.

B3: VAMP4 (protein)
VAMP4: PPKFKRHLNDDDVTGSVKSERRNLLEDDSDEEEDFFLRGPSGPRFGPRNDKIKHVQNQVDEVIDVMQENITKVIERGERLDELQDKSESLSDNATAFSNRSKQLRRQMWWRGCK
Turning to B3, the Tm was 53 °C with S3S25, 60 °C with S1S25, 60 °C with S1S23 and 57 °C in the test with S3S23.

B4: VAMP5 (protein)
VAMP5: AGKELKQCQQQADEVTEIMLNNFDKVLERHGKLAELEQRSDQLLDMSSAFSKTTKTLAQQKRWENIRCR
B4: the Tm with S3S25 came out at 42 °C; with S1S25, 53 °C; with S1S23, 55 °C; with S3S23, 52 °C.

These data come from patent US20110038892A1 (priority 2009, published 2011).
